Experiment [1] deals with integrin αvβ3 (vitronectin receptor), purified and immobilized on microtiter wells (UniProt P06756). The experiment in a line: solid-phase receptor binding assay, 125I-MMP-2 on immobilized αvβ3.
Experiment [2] addresses integrin αIIbβ3, purified and immobilized on microtiter wells (UniProt P08514). The experiment in a line: solid-phase receptor binding assay, 125I-MMP-2 on immobilized αIIbβ3.
Experiment [3] has the same target. In words: solid-phase competition: peptide against 1 nM 125I-fibrinogen on immobilized αIIbβ3; mean of duplicates ± SD.
Experiment [4] addresses integrin αvβ3 (vitronectin receptor), purified and immobilized on microtiter wells (UniProt P06756). In words: solid-phase competition: peptide against 1 nM 125I-fibrinogen on immobilized αvβ3; mean of duplicates ± SD.
Experiment [5] has as its target T1, integrin αvβ3 (vitronectin receptor), purified and immobilized on microtiter wells (UniProt P06756 31-1048; P05106 27-788).
T1 construct: Purified integrin coated at 50 ng per well; also called αvβ3 receptor; vitronectin receptor (αvβ3)
The experiment in a line: solid-phase competition: peptide against vitronectin (VN) on immobilized αvβ3; individual assay.

Experiment [6] has as its target T2, integrin αIIbβ3, purified and immobilized on microtiter wells (UniProt P08514 32-1039; P05106 27-788).
T2 construct: Purified integrin coated at 50 ng per well; also called α11bβ3
The experiment in a line: solid-phase competition: peptide against vitronectin (VN) on immobilized αIIbβ3; individual assay.

In experiment [7] the target is T1, integrin αvβ3 (vitronectin receptor), …. The experiment in a line: solid-phase competition: peptide against fibrinogen (FG) on immobilized αvβ3; individual assay.
The target of experiment [8] is T2, integrin αIIbβ3, purified and …. The experiment in a line: solid-phase competition: peptide against fibrinogen (FG) on immobilized αIIbβ3; individual assay.

Regarding “MMP-2 (matrix metalloproteinase-2) as used in the solid-phase receptor binding assays (enzyme)”, the figures for the bound cpm in experiment [1] and in experiment [2] were 300 cpm and 10 CPM, respectively.
Broadly, the IC50 is the point on the concentration scale where inhibition reaches its midpoint. Read a low IC50 as greater potency in that assay. For the molecule peptide 62175, cyclo(ARGDfL), the IC50 amounted to 630 nM in experiment [3] and 1050 nM in experiment [4].
As to peptide 62179, cyclo(GRGDfL), the IC50 in experiment [3] turned out to be 55 nM; in experiment [4], 395 nM.
In the same order, the values of peptide 62181, cyclo(GrGDFV) are 15000 nM and 1960 nM.
For peptide 62184, cyclo(RGDfV), in that order: 525 nM and 50 nM.
For peptide 62185, cyclo(RADfV), in that order: 100000 nM and 885 nM.
For peptide 62186, cyclo(RaDFV), the IC50 worked out at 100000 nM in experiment [3] and 57400 nM in experiment [4].
With peptide 62187, cyclo(RGDFv), the results for the IC50 in experiment [3] and in experiment [4] were 260 nM and 50 nM, respectively.

B1: peptide 62503, GVVRNNEALARLS (linear, αv-derived amino acid residues 655-667) (peptide)
peptide: GVVRNNEALARLS
notes: Linear synthetic peptide
Regarding B1, the IC50 in experiment [5], in experiment [6] and in experiment [7] was > 100 µM each time.

B2: peptide 62880, YTAECKPQVTRGDVF (linear, VN-derived amino acid residues 35-49) (peptide)
peptide: YTAECKPQVTRGDVF
notes: Linear synthetic peptide
Regarding B2, the IC50 in experiment [5] was 0.5 µM; in experiment [6] it was 0.98 µM; in experiment [7] it was < 0.1 µM; in experiment [8] it was 4.2 µM.

B3: peptide 62411, TRQVVCDLGNPM (linear, αv-derived amino acid residues 676-687) (peptide)
peptide: TRQVVCDLGNPM
notes: Linear synthetic peptide
In the case of B3, the IC50 in experiment [5], in experiment [6] and in experiment [7] was > 100 µM throughout.

B4: peptide 62502, TDVNGDGRHDL (linear, αIIb-derived amino acid residues 296-306) (peptide)
peptide: TDVNGDGRHDL
notes: Linear synthetic peptide
On to B4, for which the IC50 in experiment [5] was > 100 µM; in experiment [6], 5 µM; in experiment [7] it was > 100 µM; in experiment [8], 90 µM.
